Measurements: publication PMC11564776, “Enzyme stabilisation due to incorporation of a fluorinated non-natural amino acid at the protein surface” (Scientific Reports, 2024)

Biological target: the molecule itself
Experiment: SEC; Zorbax-GF250 column, 1 mL/min, 200 mM sodium phosphate pH 7.0, column at room temperature; holo-TK samples stored at 4 °C or heated 15 min at 21 °C or 50 °C; homodimer and monomer peaks combined as 'native' because dilution during SEC can cause partial dissociation to monomer

B1: wild-type E. coli transketolase (enzyme)
chain: SSRKELANAIRALSMDAVQKAKSGHPGAPMGMADIAEVLWRDFLKHNPQNPSWADRDRFVLSNGHGSMLIYSLLHLTGYDLPMEELKNFRQLHSKTPGHPEVGYTAGVETTTGPLGQGIANAVGMAIAEKTLAAQFNRPGHDIVDHYTYAFMGDGCMMEGISHEVCSLAGTLKLGKLIAFYDDNGISIDGHVEGWFTDDTAMRFEAYGWHVIRDIDGHDAASIKRAVEEARAVTDKPSLLMCKTIIGFGSPNKAGTHDSHGAPLGDAEIALTREQLGWKYAPFEIPSEIYAQWDAKEAGQAKESAWNEKFAAYAKAYPQEAAEFTRRMKGEMPSDFDAKAKEFIAKLQANPAKIASRKASQNAIEAFGPLLPEFLGGSADLAPSNLTLWSGSKAINEDAAGNYIHYGVREFGMTAIANGISLHGGFLPYTSTFLMFVEYARNAVRMAALMKQRQVMVYTHDSIGLGEDGPTHQPVEQVASLRVTPNMSTWRPCDQVESAVAWKYGVERQDGPTALILSRQNLAQQERTEEQLANIARGGYVLKDCAGQPELIFIATGSEVELAVAAYEKLTAEGVKARVVSMPSTDAFDKQDAAYRESVLPKAVTARVAVEAGIADYWYKYVGLNGAIVGMTTFGESAPAELLFEEFGFTVDNVVAKAKELL
notes: transketolase (TK) of E. coli, wild-type gene in plasmid pQR791; the introduction gives the domains as residues 1-322 (PP), 323-539 (Pyr) and 540-663 (C-terminal); Used as holo-TK with ThDP and MgCl2; also called WT TK; WT-TK; source: E. coli XL-10-Gold with plasmid pQR791, purified (Ni-NTA)
B1: binds.
